Substrate in series [1]: Nc1ncnc2c1ncn2[C@@H]1O[C@H](COP(=O)(O)OP(=O)(O)OP(=O)(O)O)[C@@H](O)[C@H]1O
The series is described as follows: purified protein. The note with it: co-substrate D-luciferin, 4 mM MgSO4, 0.10 M Tris-HCl pH 8.0, 22 °C.

Substrate in series [2]: O=C(O)[C@H]1CSC(c2nc3ccc(N4CCCC4)cc3s2)=N1
The series is described as follows: bioluminescence peak intensity (I0), Lineweaver-Burk. In kind it is biochemical, Phrixothrix hirtus. The note with it: 2 mM ATP, 4 mM MgSO4, 0.10 M Tris-HCl pH 8.0, 22 °C, kcat in relative luminometer counts.

Substrate in series [3]: O=C(O)[C@H]1CSC(c2nc3ccc(O)cc3s2)=N1
The series is described as above. The note with it: 2 mM ATP, 4 mM MgSO4, 0.10 M Tris-HCl pH 8.0, 22 °C, kcat in relative luminometer counts. The format is biochemical, Phrixothrix hirtus.

B1: PxRE luciferase (P. hirtus red-emitting luciferase, RE WT) (Phrixothrix hirtus) (protein)
chain: MEEENIVNGDRPRDLVFPGTAGLQLYQSLYKYSYITDGIIDAHTNEVISYAQIFETSCRLAVSLEKYGLDHNNVVAICSENNIHFFGPLIAALYQGIPMATSNDMYTEREMIGHLNISKPCLMFCSKKSLPFILKVQKHLDFLKKVIVIDSMYDINGVECVFSFVSRYTDHAFDPVKFNPKEFDPLERTALIMTSSGTTGLPKGVVISHRSITIRFVHSSDPIYGTRIAPDTSILAIAPFHHAFGLFTALAYFPVGLKIVMVKKFEGEFFLKTIQNYKIASIVVPPPIMVYLAKSPLVDEYNLSSLTEIACGGSPLGRDIADKVAKRLKVHGILQGYGLTETCSALILSPNDRELKKGAIGTPMPYVQVKVIDINTGKALGPREKGEICFKSQMLMKGYHNNPQATRDALDKDGWLHTGDLGYYDEDRFIYVVDRLKELIKYKGYQVAPAELENLLLQHPNISDAGVIGIPDEFAGQLPSACVVLEPGKTMTEKEVQDYIAELVTTTKHLRGGVVFIDSIPKGPTGKLMRNELRAIFAREQAKSKL
In general, Km refers to the substrate concentration at which the rate is half of its maximum. Turning to B1, the Km worked out at 230 µM in series [1], 0.5 µM in series [2] and 7 µM in series [3].

B2: PxRE luciferase (P. hirtus red-emitting luciferase, RE WT) (Phrixothrix hirtus; R215K) (protein)
chain: MEEENIVNGDRPRDLVFPGTAGLQLYQSLYKYSYITDGIIDAHTNEVISYAQIFETSCRLAVSLEKYGLDHNNVVAICSENNIHFFGPLIAALYQGIPMATSNDMYTEREMIGHLNISKPCLMFCSKKSLPFILKVQKHLDFLKKVIVIDSMYDINGVECVFSFVSRYTDHAFDPVKFNPKEFDPLERTALIMTSSGTTGLPKGVVISHRSITIKFVHSSDPIYGTRIAPDTSILAIAPFHHAFGLFTALAYFPVGLKIVMVKKFEGEFFLKTIQNYKIASIVVPPPIMVYLAKSPLVDEYNLSSLTEIACGGSPLGRDIADKVAKRLKVHGILQGYGLTETCSALILSPNDRELKKGAIGTPMPYVQVKVIDINTGKALGPREKGEICFKSQMLMKGYHNNPQATRDALDKDGWLHTGDLGYYDEDRFIYVVDRLKELIKYKGYQVAPAELENLLLQHPNISDAGVIGIPDEFAGQLPSACVVLEPGKTMTEKEVQDYIAELVTTTKHLRGGVVFIDSIPKGPTGKLMRNELRAIFAREQAKSKL
Regarding B2, the Km in series [1] stood at 50 µM; in series [2], 1.0 µM; in series [3] it was 40 µM.
